{"source": "patent US20230181750A1", "about": "(CRISPR THERAPEUTICS, published 2023)", "binders": {"B1": {"name": "mask peptide P1 (peptide)", "peptide": "EVAPGKRWFYNHVKQVPHLV", "notes": "Selected by phage display (Screen 1, X15/X19 library)"}, "B2": {"name": "mask peptide P2 (peptide)", "peptide": "HEEVHMRPNKLSLTWAYTGPQLR", "notes": "as for B1"}, "B3": {"name": "mask peptide M3 (peptide)", "peptide": "CTMPPSPRSKVIC", "notes": "Selected by phage display (Screen 2, XnCXnCXn library)"}}, "data": [{"biological_target": "T1, anti-PTK7 antibody Ab181", "T1 construct": "also called unmasked antibody", "assay": "phage display selection against Ab181, X15/X19 library", "values": [{"binder": "B1", "binding result": "binds"}, {"binder": "B2", "binding result": "binds"}]}, {"biological_target": "T1, anti-PTK7 antibody Ab181", "assay": "phage display selection against Ab181, XnCXnCXn library", "values": [{"binder": "CHIGKRPVPCLWI (Selected by phage display (Screen 2))", "note": "[mask peptide M9]", "binding result": "binds"}, {"binder": "CYIGLRMVPCFHM (Selected by phage display (Screen 2))", "note": "[mask peptide M10]", "binding result": "binds"}, {"binder": "CTMPSHAVASFLC (Selected by phage display (Screen 2))", "note": "[mask peptide M11]", "binding result": "binds"}, {"binder": "CTMPVHTYSQWLC (Selected by phage display (Screen 2))", "note": "[mask peptide M12]", "binding result": "binds"}, {"binder": "CTYPPRFHMHWLC (Selected by phage display (Screen 2))", "note": "[mask peptide M13]", "binding result": "binds"}, {"binder": "CTHVAQWAIKAFC (Selected by phage display (Screen 2))", "note": "[mask peptide M14]", "binding result": "binds"}, {"binder": "B3", "binding result": "binds"}, {"binder": "CTFPNTTMQRTFC (Selected by phage display (Screen 2))", "note": "[mask peptide M4]", "binding result": "binds"}, {"binder": "CTYPSWVAYIRFC (Selected by phage display (Screen 2))", "note": "[mask peptide M5]", "binding result": "binds"}, {"binder": "VCTYPPAHRTRFC (Selected by phage display (Screen 2))", "note": "[mask peptide M6]", "binding result": "binds"}, {"binder": "CTMPYHIHSIGLC (Selected by phage display (Screen 2))", "note": "[mask peptide M7]", "binding result": "binds"}, {"binder": "WCTIPSSMSIRLC (Selected by phage display (Screen 2))", "note": "[mask peptide M8]", "binding result": "binds"}]}]}
